# Literature values, collected in article PMC2865993.
# Target: actin filament (sides) (Oryctolagus cuniculus) (UniProt P68135)
substance,measurement,value
formin (mDia1 FH2) FH2 (from UniProt O08808),Kd,3 µM
